± gives the standard deviation of the averaged measurements.
Columns and labels:
[1] = tested on: Saccharomyces cerevisiae; experiment: protein stability index of tFT-peptide fusion (C-terminal peptide) (PSI (0-1 scale)); higher = more stable (slower turnover)
Description: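 MPS profiling in S. cerevisiae of the tFT-X12 degron library: putative degron peptides plus stable controls, 12 aa, fused to the C-terminus of a sfGFP-mCherry timer. Cells are FACS-sorted into 8 mCherry/sfGFP bins and deep-sequenced. PSI runs from 0 (unstable) to 1 (stable). Backgrounds are wild type, das1Δ and doa10Δ at 30 °C, and wild type, das1Δ, cdc34-1 and cdc53-1 at 37 °C; 2-3 technical replicates each.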

[2] = tested on: Saccharomyces cerevisiae; experiment: as above; conditions: genetic background: wild type; temperature: 30 C
[3] = genetic background: cdc34-1, temperature: 37 C
[4] = genetic background: cdc53-1, temperature: 37 C
[5] = genetic background: das1 deletion, temperature: 30 C
[6] = genetic background: das1 deletion, temperature: 37 C
[7] = genetic background: doa10 deletion, temperature: 30 C
[8] = genetic background: wild type, temperature: 30 C
[9] = genetic background: wild type, temperature: 37 C
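Further: PSI is a weighted mean of sequencing reads over stability bins, variants kept only with over 10 reads, mCherry proximal and sfGFP distal, peptide attached via GGGS linker.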

Row | Sequence | protein stability index [1, 3] | protein stability index [1, 4] | protein stability index [1, 5] | protein stability index [1, 6] | protein stability index [1, 7] | protein stability index [1, 8] | protein stability index [1, 9] | protein stability index [2]
1 | VFFHFFVCWRFV | 0.184 ± 0.068 | 0.231 ± 0.013 | 0.25 ± 0.032 | 0.3646 ± 0.00069 | 0.0556 ± 0.014 | 0.0548 ± 0.018 | 0.0857 ± 0.0019 | 0.121 ± 0.019
2 | CPALYMPPPVLV | 0.114 ± 0.036 | 0.13 ± 0.012 | 0.191 ± 0.026 | 0.238 ± 0.01 | 0.14 ± 0.03 | 0.182 ± 0.015 | 0.215 ± 0.0041 | 0.2594 ± 0.0017
3 | VAFGVASGWCWF | 0.748 ± 0.048 | 0.8066 ± 0.0046 | 0.687 ± 0.016 | 0.848 ± 0.0032 | 0.373 ± 0.0093 | 0.397 ± 0.015 | 0.6902 ± 0.0057 | 0.488 ± 0.02
4 | LYIQWVSRWSVQ | 0.611 ± 0.029 | 0.664 ± 0.083 | 0.547 ± 0.035 | 0.669 ± 0.021 | 0.388 ± 0.011 | 0.415 ± 0.019 | 0.5818 ± 0.003 | 0.504 ± 0.025
5 | RSGWWQWGRPGT | 0.698 ± 0.031 | 0.7525 ± 0.0031 | 0.661 ± 0.033 | 0.7712 ± 0.0041 | 0.692 ± 0.034 | 0.691 ± 0.03 | 0.734 ± 0.025 | 0.752 ± 0.049
6 | VEIKSKRMLVVI | 0.5115 ± 0.0011 | 0.538 ± 0.039 | 0.426 ± 0.028 | 0.578 ± 0.0069 | 0.287 ± 0.013 | 0.322 ± 0.04 | 0.4749 ± 0.0012 | 0.45639 ± 0.00022
7 | FFVRSWWVELLF | 0.642 ± 0.029 | 0.719 ± 0.017 | 0.558 ± 0.026 | 0.682 ± 0.024 | 0.296 ± 0.0038 | 0.335 ± 0.031 | 0.5502 ± 0.0055 | 0.424 ± 0.0097
8 | RRLRPQTVAFLS | 0.593 ± 0.012 | 0.717 ± 0.03 | 0.676 ± 0.021 | 0.704 ± 0.028 | 0.159 ± 0.0046 | 0.176 ± 0.025 | 0.278 ± 0.0083 | 0.231 ± 0.04
9 | LCFFLAFSFVFF | 0.253 ± 0.017 | 0.324 ± 0.011 | 0.231 ± 0.025 | 0.382 ± 0.026 | 0.289 ± 0.00096 | 0.236 ± 0.022 | 0.3374 ± 0.0016 | 0.296 ± 0.0099
10 | CLFSPFCFILFC | 0.0319 ± 0.013 | 0.0391 ± 0.0022 | 0.0898 ± 0.0084 | 0.11 ± 0.012 | 0.285 ± 0.021 | 0.074 ± 0.011 | 0.0686 ± 0.019 | 0.12318 ± 9.1e-05
11 | AGLTLLWPLCLL | 0.28 ± 0.0058 | 0.261 ± 0.0053 | 0.277 ± 0.022 | 0.394 ± 0.013 | 0.591 ± 0.01 | 0.265 ± 0.034 | 0.353 ± 0.013 | 0.3669 ± 0.0023
12 | GGLFRWCVWRIV | 0.413 ± 0.02 | 0.5292 ± 0.0032 | 0.545 ± 0.025 | 0.6377 ± 0.0015 | 0.102 ± 0.016 | 0.102 ± 0.0098 | 0.172 ± 0.025 | 0.145 ± 0.0086
13 | EDRKRNKERRWT | 0.679 ± 0.024 | 0.702 ± 0.013 | 0.642 ± 0.015 | 0.716 ± 0.0076 | 0.305 ± 0.0042 | 0.303 ± 0.027 | 0.57 ± 0.01 | 0.4256 ± 0.0024
14 | IGSFYVLSFICQ | 0.593 ± 0.043 | 0.61 ± 0.018 | 0.454 ± 0.021 | 0.626 ± 0.019 | 0.438 ± 0.024 | 0.458 ± 0.043 | 0.592 ± 0.014 | 0.475 ± 0.02
15 | VVACCVVFWVLP | 0.232 ± 0.017 | 0.469 ± 0.042 | 0.27 ± 0.028 | 0.481 ± 0.016 | 0.231 ± 0.011 | 0.292 ± 0.022 | 0.507 ± 0.013 | 0.437 ± 0.086
16 | WFSRCVSLGLCW | 0.2808 ± 0.0017 | 0.3093 ± 0.0024 | 0.29 ± 0.019 | 0.398 ± 0.018 | 0.274 ± 0.012 | 0.302 ± 0.029 | 0.363 ± 0.017 | 0.4176 ± 0.0036
17 | VLVTFFIRSGVS | 0.456 ± 0.0087 | 0.54 ± 0.0081 | 0.356 ± 0.042 | 0.536 ± 0.018 | 0.311 ± 0.01 | 0.338 ± 0.028 | 0.49942 ± 1.4e-06 | 0.411 ± 0.045
18 | VFLDCCLRVFVD | 0.252 ± 0.016 | 0.379 ± 0.028 | 0.228 ± 0.032 | 0.424 ± 0.014 | 0.188 ± 0.014 | 0.222 ± 0.023 | 0.389 ± 0.012 | 0.312 ± 0.011
19 | RSKLGVLVILWF | 0.288 ± 0.02 | 0.391 ± 0.011 | 0.293 ± 0.031 | 0.466 ± 0.012 | 0.243 ± 0.016 | 0.273 ± 0.025 | 0.448 ± 0.0055 | 0.353 ± 0.037
20 | LSVSLFPIRYVG | 0.666 ± 0.027 | 0.76446 ± 1.3e-05 | 0.617 ± 0.019 | 0.7638 ± 0.0037 | 0.196 ± 0.0098 | 0.24 ± 0.02 | 0.453 ± 0.016 | 0.396 ± 0.025

Row | Sequence | protein stability index [1, 3] | protein stability index [1, 4] | protein stability index [1, 5] | protein stability index [1, 6] | protein stability index [1, 7] | protein stability index [1, 8] | protein stability index [1, 9] | protein stability index [2]
21 | LSVMKLFVMVGP | 0.442 ± 0.0094 | 0.493 ± 0.027 | 0.37 ± 0.026 | 0.5023 ± 0.0045 | 0.358 ± 0.0093 | 0.377 ± 0.029 | 0.479 ± 0.012 | 0.401 ± 0.039
22 | GVCSFFVCVFFV | 0.195 ± 0.0042 | 0.319 ± 0.034 | 0.233 ± 0.036 | 0.41 ± 0.005 | 0.162 ± 0.008 | 0.177 ± 0.024 | 0.303 ± 0.0089 | 0.291 ± 0.0064
23 | LACGIDGYYWRH | 0.703 ± 0.048 | 0.7448 ± 0.0019 | 0.667 ± 0.015 | 0.73851 ± 0.00042 | 0.6631 ± 0.0021 | 0.682 ± 0.028 | 0.709 ± 0.017 | 0.792 ± 0.027
24 | RFHTFVFCLLCL | 0.407 ± 0.062 | 0.438 ± 0.018 | 0.432 ± 0.02 | 0.516 ± 0.026 | 0.2796 ± 0.00049 | 0.277 ± 0.015 | 0.386 ± 0.015 | 0.328 ± 0.06
25 | LSFLALLLFFRI | 0.228 ± 0.035 | 0.22 ± 0.061 | 0.363 ± 0.04 | 0.44 ± 0.015 | 0.567 ± 0.017 | 0.372 ± 0.025 | 0.357 ± 0.019 | 0.4764 ± 0.0023
26 | WFLLSLSSFVSS | 0.427 ± 0.03 | 0.415 ± 0.11 | 0.363 ± 0.023 | 0.469 ± 0.0061 | 0.358 ± 0.037 | 0.351 ± 0.0038 | 0.4555 ± 0.00088 | 0.427 ± 0.015
27 | GFVISSCRLFIL | 0.581 ± 0.052 | 0.632 ± 0.0072 | 0.59 ± 0.022 | 0.669 ± 0.011 | 0.272 ± 0.021 | 0.264 ± 0.024 | 0.3989 ± 0.0031 | 0.337 ± 0.044
28 | RYQDLSDWRRIS | 0.412 ± 0.02 | 0.6574 ± 0.0031 | 0.629 ± 0.0036 | 0.753 ± 0.028 | 0.073 ± 0.0096 | 0.0791 ± 0.017 | 0.0794 ± 0.017 | 0.159 ± 0.0075
29 | GYLFICSWCEGF | 0.46 ± 0.059 | 0.503 ± 0.01 | 0.363 ± 0.023 | 0.503 ± 0.029 | 0.352 ± 0.028 | 0.346 ± 0.018 | 0.4849 ± 0.0034 | 0.427 ± 0.048
30 | DRRYIISLIYIL | 0.32 ± 0.022 | 0.5045 ± 0.0033 | 0.369 ± 0.023 | 0.576 ± 0.035 | 0.0892 ± 0.014 | 0.0874 ± 0.015 | 0.105 ± 0.0088 | 0.113 ± 0.059
31 | FRLFSLWFCWVR | 0.13 ± 0.0073 | 0.0999 ± 0.022 | 0.227 ± 0.025 | 0.297 ± 0.014 | 0.365 ± 0.013 | 0.212 ± 0.034 | 0.26 ± 0.025 | 0.348 ± 0.015
32 | WVRLGRSWTTVG | 0.68 ± 0.054 | 0.736 ± 0.013 | 0.686 ± 0.035 | 0.754 ± 0.013 | 0.22 ± 0.034 | 0.283 ± 0.016 | 0.549 ± 0.0057 | 0.422 ± 0.029
33 | CLTGWFGIFSAP | 0.708 ± 0.019 | 0.755 ± 0.025 | 0.678 ± 0.016 | 0.763 ± 0.02 | 0.695 ± 0.015 | 0.688 ± 0.027 | 0.737 ± 0.015 | 0.7344 ± 0.0021
34 | CTFFCICVFFLL | 0.349 ± 0.019 | 0.413 ± 0.025 | 0.339 ± 0.027 | 0.463 ± 0.0064 | 0.267 ± 0.012 | 0.281 ± 0.022 | 0.4 ± 0.0063 | 0.392 ± 0.042
35 | VCSRWFFVFVVR | 0.402 ± 0.033 | 0.424 ± 0.043 | 0.331 ± 0.035 | 0.523 ± 0.014 | 0.409 ± 0.014 | 0.291 ± 0.051 | 0.4917 ± 0.0013 | 0.388 ± 0.011
36 | LEVHGSCIFICV | 0.5422 ± 0.0046 | 0.5462 ± 0.0037 | 0.359 ± 0.039 | 0.5674 ± 0.0018 | 0.336 ± 0.041 | 0.374 ± 0.0092 | 0.492 ± 0.026 | 0.444 ± 0.017
37 | PYPPTSLPPTWQ | 0.672 ± 0.043 | 0.7459 ± 0.0012 | 0.652 ± 0.0095 | 0.711 ± 0.017 | 0.678 ± 0.023 | 0.671 ± 0.038 | 0.701 ± 0.025 | 0.726 ± 0.026
38 | SSFFFLFCFFPS | 0.575 ± 0.13 | 0.619 ± 0.027 | 0.48 ± 0.062 | 0.646 ± 0.055 | 0.444 ± 0.031 | 0.449 ± 0.019 | 0.604 ± 0.017 | 0.471 ± 0.047
39 | SSFPGPPLPPDP | 0.704 ± 0.024 | 0.74 ± 0.013 | 0.652 ± 0.024 | 0.731 ± 0.022 | 0.682 ± 0.038 | 0.7 ± 0.019 | 0.7108 ± 0.0069 | 0.59 ± 0.17

— the supplement of paper PMC10724198
